The record followed here is US20220119540A1 (NANJING GENSCRIPT BIOTECH, published 2022).

What is called EC50 is the concentration needed to bring the measured effect to its halfway point. Broadly, the Kd is the equilibrium constant for the complex coming apart. As usually defined, the koff is the first-order rate constant of dissociation. The term kon denotes a measure of how fast the partners come together.

Substitutions are numbered along the chain they refer to.

T1: OX40 on a functional cell line overexpressing OX40 (UniProt P43489 29-277, limits assumed)
T1 sequence (looked up): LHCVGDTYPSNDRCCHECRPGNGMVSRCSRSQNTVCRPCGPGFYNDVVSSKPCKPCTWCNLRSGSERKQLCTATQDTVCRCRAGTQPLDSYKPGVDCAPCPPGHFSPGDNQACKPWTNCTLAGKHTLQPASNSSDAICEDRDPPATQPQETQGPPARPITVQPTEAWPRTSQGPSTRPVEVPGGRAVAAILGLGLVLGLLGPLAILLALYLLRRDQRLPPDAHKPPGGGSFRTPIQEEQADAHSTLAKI

T2: Recombinant human OX40-His protein (human, UniProt P43489 29-214, limits assumed)
T2 construct: Recombinant antigen protein; also called recombinant human OX-40 protein; human OX-40 protein; not shown: His tag
T2 sequence (looked up): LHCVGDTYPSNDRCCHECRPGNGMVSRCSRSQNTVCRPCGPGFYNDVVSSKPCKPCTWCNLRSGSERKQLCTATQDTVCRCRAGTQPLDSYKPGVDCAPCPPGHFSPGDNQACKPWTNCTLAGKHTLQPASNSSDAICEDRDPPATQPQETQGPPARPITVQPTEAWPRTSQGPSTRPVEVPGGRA

T3: Recombinant monkey OX-40 protein (monkey)
T3 chain: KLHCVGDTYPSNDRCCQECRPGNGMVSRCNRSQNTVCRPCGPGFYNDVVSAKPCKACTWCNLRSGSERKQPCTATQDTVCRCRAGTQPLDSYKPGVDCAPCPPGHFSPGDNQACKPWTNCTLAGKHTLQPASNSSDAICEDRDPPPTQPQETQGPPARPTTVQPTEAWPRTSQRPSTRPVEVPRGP

B1: AH02913 humanized anti-human OX40 monoclonal antibody (recombinant human IgG1/kappa) (antibody, V domains shown)
VH: QVQLVQSGPEVKKPGASVKVSCKASGYTFTDYSMHWVKQAPGQGLEWMGWISTETGEPTYADDFKGRVTITLDTSASTAYMELSSLRSEDTAVYFCARVRPWYLAVWGQGTLVTVSS
VL: DIQMTQSPSSLSASVGDRVTITCRASQDISNYLNWYQQKPGKAVKLLIYYTSRLYSGVPSRFSGSGSGTDYTFTISSLQPEDIATYFCQQANTLPLTFGGGTKLEIK
B2: AH02921 humanized anti-human OX40 monoclonal antibody (recombinant human IgG1/kappa) (antibody, V domains shown)
VH: B1 VH with K38R, V68F, M81L, L83I, A105T
VL: B1 VL with V44P, F73L
B3: AH02916 humanized anti-human OX40 monoclonal antibody (recombinant human IgG1/kappa) (antibody, V domains shown)
VH: B1 VH with P9A, F95Y
VL: B1 VL
B4: AH02919 humanized anti-human OX40 monoclonal antibody (recombinant human IgG1/kappa) (antibody, V domains shown)
VH: B1 VH with P9A, L72R, M81L, L83I
VL: B1 VL with F73L, F87Y
B5: AH02923 humanized anti-human OX40 monoclonal antibody (recombinant human IgG1/kappa) (antibody, V domains shown)
VH: B1 VH with P9A, K38R, V68F, I70F, M81L, F95Y
VL: B1 VL with F87Y
B6: Chimeric antibody (anti-human OX40, recombinant, human IgG1/kappa constant regions) (antibody, V domains shown)
VH: QIQLVQSGPELKKPGETVKISCKASGYTFTDYSMHWVKQAPGKGLKWMGWISTETGEPTYADDFKGRFAFSLETSASTAYLQIKNLKNEDTASYFCARVRPWYLAVWGAGTTVTVSS
VL: DIQMTQTTSSLSASLGDRVTISCRASQDISNYLNWYQQKPDGTVKLLIYYTSRLYSGVPSRFSGSGSGADYSLTVSNLEQEDIATYFCQQANTLPLTFGAGTKLELK
B7: Chimeric antibody, as ranked with the prokaryotically expressed antibody products (back-mutation screening) (Fab, V domains shown)
VH: B6 VH
VL: B6 VL
B8: AH02923, prokaryotically expressed antibody product (back-mutation screening) (Fab, V domains shown)
VH: B1 VH with P9A, K38R, V68F, I70F, M81L, F95Y
VL: B1 VL with F87Y
B9: AH02925, prokaryotically expressed antibody product (back-mutation screening) (Fab, V domains shown)
VH: B1 VH with P9A, L72R, M81L, L83I
VL: B1 VL with Y71F, F73L, F87Y

The target of one assay is OX40 on a functional cell line overexpressing OX40 (UniProt P43489). Description: cell-based or functional assay.
On to “OX40 ligand (from UniProt P23510 51-183)”, for which the IL-8 secretion by OX40 overexpressing functional cell line, EC50 was found to be 2.54 nM; the IL-8 secretion by OX40 overexpressing functional cell line, best-fit value Bottom was 4130; the IL-8 secretion by OX40 overexpressing functional cell line, best-fit value LogEC50 stood at 0.404; the IL-8 secretion by OX40 overexpressing functional cell line, best-fit value Top was 19900.

The target in another assay is T1, OX40 on a functional cell line …. In words: cell-based or functional assay.
Turning to B1, the “IL-8 secretion by OX40 overexpressing functional cell line, EC50” value came out at 1.62 nM; the “IL-8 secretion by OX40 overexpressing functional cell line, best-fit value Bottom” value (“IL-8 secretion … best-fit value Bottom” below) was determined as 3950; the “IL-8 secretion by OX40 overexpressing functional cell line, best-fit value LogEC50” value (“IL-8 secretion … best-fit value LogEC50” below) is 0.209; the “IL-8 secretion by OX40 overexpressing functional cell line, best-fit value Top” value (“IL-8 secretion … best-fit value Top” for short) turned out to be 24200.
As to B2, the “IL-8 secretion by OX40 overexpressing functional cell line, EC50” value is 2.14 nM; the “IL-8 secretion … best-fit value Bottom” value was found to be 4420; the “IL-8 secretion … best-fit value LogEC50” value worked out at 0.329; the “IL-8 secretion … best-fit value Top” value turned out to be 19500.
For B3 the same measures were 3 nM, 3590, 0.476 and 24600.
For B4 the same measures were 1.03 nM, 3060, 0.0123 and 19000.
With B5, the “IL-8 secretion by OX40 overexpressing functional cell line, EC50” value is 1.55 nM; the “IL-8 secretion … best-fit value Bottom” value stood at 3350; the “IL-8 secretion … best-fit value LogEC50” value came to 0.191; the “IL-8 secretion … best-fit value Top” value turned out to be 21000.

For a further assay, the target named is T2, Recombinant human OX40-His protein. Description: ELISA, plate coated with recombinant human OX-40 protein, antibody titrated. How it is done: Recombinant human OX-40 protein and recombinant monkey OX-40 protein were respectively used to detect the cross-recognition ability of humanized monoclonal antibodies for human/monkey OX-40 protein.
The ELISA plate (Nunc) was coated with 100 μl/well of […] recombinant OX40-His protein in PBS at 4° C. overnight. The plate was washed with PBS-T (0.05% Tween) and blocked with 200 μl/well of PBST containing 1% BSA at 37° C. for 0.5 hr. Then the blocking buffer was discarded, 100 μl of 1000 ng/ml purified antibody was added to the first well, 3-fold serial dilutions were made, and a total of 11 test concentration gradients were given. Then the system was incubated for 1 hr at room temperature. The plate was washed three times with PBST and incubated with 100 μl/well of horseradish peroxidase-conjugated goat anti-human Fab fragment-IgG (Fab-specific) (GenScript) at 37° C. for 0.5 hr. The plate was washed 5 times with PBST, and then a TMB developing solution (GenScript) was added and incubated at room temperature for 15 min in the dark. The reaction was terminated by adding 50 μl of 1 M HCl stop solution (Sigma). The plate was read at 450 nm on a microplate reader.
For orientation: In an ELISA, binding on a coated surface is turned into a signal by an enzyme label.
On to B6, for which the EC50 was found to be 0.0138 µg/mL.
Same read-out and setting: the value for B1 was 0.0161 µg/mL.
Turning to B2, the EC50 was determined as 0.0161 µg/mL.
Still for that read-out and setting: the value for B3 was 0.0131 µg/mL; that for B4 was 0.0143 µg/mL.
As to B5, the EC50 came out at 0.0107 µg/mL.

The target in the next assay is T3, Recombinant monkey OX-40 protein. In words: ELISA, plate coated with recombinant monkey OX-40 protein, antibody titrated.
Take B6: the 50% effective concentration (EC50) came to 0.0618 µg/mL.
Take B1: the EC50 amounted to 0.0353 µg/mL.
Take B2: the EC50 is 0.0376 µg/mL.
B3: the EC50 is 0.0323 µg/mL.
For B4, the EC50 worked out at 0.0391 µg/mL.
Still for that read-out and setting: the value for B5 was 0.0303 µg/mL.

Another assay deals with T2, Recombinant human OX40-His protein. Description: SPR (Biacore 8K), OX40-HIS coupled to chip, antibody as analyte, 1:1 binding model. The protocol: The chip surface was equilibrated with HBS-EP buffer at a flow rate of 10 μl/min for 5 min, and then a 1:1 mixture of “NHS+EDC” was injected at a flow rate of 10 μl/min for 100 sec to activate the chip. The antigen protein (OX40-HIS) diluted in 10 mM sodium acetate buffer was injected for about 180 sec at a flow rate of 10 μl/min for coupling, and finally ethanolamine was injected for 200 sec at a flow rate of 10 μl/min to block the surface.
Three pre-cycles were performed with the HBS-EP buffer as a sample to balance the chip to stabilize the baseline. A low concentration of antibody was injected at a flow rate of 30 μl/min for 200 sec, to allow the antigen to bind to the antibody, and then the buffer was injected at a flow rate of 30 μl/min for 400 sec for dissociation. 10 mM Gly-HCl pH2.0 was injected three times each for 30 sec at a flow rate of 30 μl/min for regeneration, to complete one cycle.
The antibody concentration was changed to carry out the cycle for measurement at a next gradient concentration until all gradient concentrations (2.5 nM, 5 nM, 10 nM, 20 nM, 40 nM, and […]) and the replicate (such as 20 nM) were tested. The experimental data was double subtracted (minus the background values of the control channel and zero concentration), and fitted to the “1:1 binding” model in the Biacore 8K evaluation software. Biacore 8K was used to determine the affinity of the antibody to the OX40-HIS recombinant protein.
Background: Surface plasmon resonance follows binding to a sensor surface in real time, without labels.
Regarding B6, the Kd is 2.4 nM, the koff is 0.000814 s⁻¹ and the kon was 339000 M⁻¹ s⁻¹.
For B1, the Kd came out at 1.76 nM, the koff came out at 0.00067 s⁻¹ and the kon was 381000 M⁻¹ s⁻¹.
Take B2: the Kd is 1.34 nM, the koff is 0.000439 s⁻¹ and the kon was 327000 M⁻¹ s⁻¹.
For B3, the Kd was 2.46 nM, the koff came to 0.000659 s⁻¹ and the kon was 268000 M⁻¹ s⁻¹.
For the molecule B4, the equilibrium dissociation constant (Kd) was found to be 2.09 nM, the koff came out at 0.000776 s⁻¹ and the kon amounted to 372000 M⁻¹ s⁻¹.
The matching figures for B5: 2.15 nM, 0.000616 s⁻¹ and 287000 M⁻¹ s⁻¹.

Another assay shares this target. In words: kinetic ranking (RU, 1:1 binding model), antibody product as ligand, OX40-His as analyte.
In the case of B7, the Kd amounted to 11.2 nM, the koff stood at 0.00487 s⁻¹ and the kon amounted to 434000 M⁻¹ s⁻¹.

For a further assay the target is unchanged. In words: kinetic ranking (RU, 1:1 binding model), prokaryotically expressed antibody product as ligand, OX40-His as analyte.
For B8, the Kd was 10.8 nM, the koff was found to be 0.00344 s⁻¹ and the kon turned out to be 317000 M⁻¹ s⁻¹.
For B9 the same measures were 14.9 nM, 0.00439 s⁻¹ and 295000 M⁻¹ s⁻¹.
